Results taken from patent publication US20240352128A1 (NANJING GENSCRIPT BIOTECH, published 2024).

Biological target: T1, cynomolgus monkey CD16a on HEK293 cells expressing cyno monkey CD16a (constructed by Genscript) (cynomolgus monkey, UniProt Q8SPW2 17-254)
T1 construct: whole, on cells; also called cynomolgus monkey CD16a protein
Test: flow cytometry on HEK293 cells expressing cyno monkey CD16a
Experimental: To determine the cross-reactions of antibody products, HEK293 cells expressing cyno monkey CD16a (constructed by Genscript) were harvested and incubated respectively with serially diluted anti-CD16a humanized sdAb-mIgG1Fcs (max. concentration: 100 nM, 3-fold dilution), followed by fluorophore (iFluor 647)-labeled goat anti mouse IgG (H+L) secondary antibodies (Jackson immuno research; catalog #: 115-605-062). The samples were then analyzed with flow cytometry. Raw data was plotted with GraphPad Prism v6.02 software with four parameters, best-fit values program to analyze the EC₅₀. The molecules of pTT5-AR8804-3.2 mIgG1Fc, pTT5-AR8804-3.3mIgG1Fc, pTT5-AR8820-1.1mIgG1Fc, pTT5-AR8820-1.2mIgG1Fc, pTT5-AR8820-1.3mIgG1Fc, pTT5-AR8820-2.1mIgG1Fc, pTT5-AR8820-2.3mIgG1Fc, pTT5-AR8820-3.1mIgG1Fc and pTT5-AR8820-3.3 mIgG1Fc manifested good cross-reaction with cynomolgus monkey CD16a protein (FIG. 13).

T1 sequence (Q8SPW2 17-254): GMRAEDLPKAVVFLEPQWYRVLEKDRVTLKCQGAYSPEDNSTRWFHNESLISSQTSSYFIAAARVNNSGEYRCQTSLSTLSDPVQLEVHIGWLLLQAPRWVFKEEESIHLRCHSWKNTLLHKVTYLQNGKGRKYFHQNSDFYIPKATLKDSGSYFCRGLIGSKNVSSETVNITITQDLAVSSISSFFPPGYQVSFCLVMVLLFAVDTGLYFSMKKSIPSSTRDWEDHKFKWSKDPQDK

binding result	Binder
binds	pTT5-AR8820-2.3mIgG1Fc (Fc fusion, As m24) VHH-Fc: EVQLVESGGGLIQPGGSLRLSCAASGSSISRYAMAWYRQAPGKGRELVSVVRITGSPIYADFVGGRFTISRDNSKNTLYLQMNSLRAEDTAVYYCNRGNFNTYTRRYSPSETWGQGTTVTVSSVPRDCGCKPCICTVPEVSSVFIFPPKPKDVLTITLTPKVTCVVVDISKDDPEVQFSWFVDDVEVHTAQTQPREEQFNSTFRSVSELPIMHQDWLNGKEFKCRVNSAAFPAPIEKTISKTKGRPKAPQVYTIPPPKEQMAKDKVSLTCMITDFFPEDITVEWQWNGQPAENYKNTQPIMDTDGSYFVYSKLNVQKSNWEAGNTFTCSVLHEGLHNHHTEKSLSHSPGK
binds	pTT5-AR8820-1.2mIgG1Fc (Fc fusion, As m24) heavy: QVQLVESGGGVVQPGGSLRLSCAASGSSISRYAMAWYRQAPGKGREWVAVVRITGSPIYADFVGGRFTISRDNSKNTLYLQMNSLRAEDTAVYYCATGNFNTYTRRYSPSETWGKGTTVTVSSVPRDCGCKPCICTVPEVSSVFIFPPKPKDVLTITLTPKVTCVVVDISKDDPEVQFSWFVDDVEVHTAQTQPREEQFNSTFRSVSELPIMHQDWLNGKEFKCRVNSAAFPAPIEKTISKTKGRPKAPQVYTIPPPKEQMAKDKVSLTCMITDFFPEDITVEWQWNGQPAENYKNTQPIMDTDGSYFVYSKLNVQKSNWEAGNTFTCSVLHEGLHNHHTEKSLSHSPGK
binds	pTT5-AR8804-3.2 mIgG1Fc (Fc fusion, As m24) heavy: QVQLVESGGGVVQPGGSLRLSCAASGSSVSRYAMAWYRQAPGKGREWVAVVRITGIPIYADFVKGRFTISRDNSKNTLYLQMNSLRAEDTAVYYCATGNFNTYTRRYSPSETWGKGTTVTVSSVPRDCGCKPCICTVPEVSSVFIFPPKPKDVLTITLTPKVTCVVVDISKDDPEVQFSWFVDDVEVHTAQTQPREEQFNSTFRSVSELPIMHQDWLNGKEFKCRVNSAAFPAPIEKTISKTKGRPKAPQVYTIPPPKEQMAKDKVSLTCMITDFFPEDITVEWQWNGQPAENYKNTQPIMDTDGSYFVYSKLNVQKSNWEAGNTFTCSVLHEGLHNHHTEKSLSHSPGK

Second part, the binder before the results:

Binder	binding result
pTT5-AR8820-1.1mIgG1Fc (Fc fusion, As m24) heavy: QVQLVESGGGVVQPGGSLRLSCAASGSSISRYAMAWYRQAPGKGRELVAVVRITGSPIYADFVGGRFTISRDNSKNTLYLQMNSLRAEDTAVYYCATGNFNTYTRRYSPSETWGKGTTVTVSSVPRDCGCKPCICTVPEVSSVFIFPPKPKDVLTITLTPKVTCVVVDISKDDPEVQFSWFVDDVEVHTAQTQPREEQFNSTFRSVSELPIMHQDWLNGKEFKCRVNSAAFPAPIEKTISKTKGRPKAPQVYTIPPPKEQMAKDKVSLTCMITDFFPEDITVEWQWNGQPAENYKNTQPIMDTDGSYFVYSKLNVQKSNWEAGNTFTCSVLHEGLHNHHTEKSLSHSPGK	binds
pTT5-AR8820-1.3mIgG1Fc (Fc fusion, As m24) heavy: QVQLVESGGGVVQPGGSLRLSCAASGSSISRYAMAWYRQAPGKGRELVAVVRITGSPIYADFVGGRFTISRDNSKNTLYLQMNSLRAEDTAVYYCNTGNFNTYTRRYSPSETWGKGTTVTVSSVPRDCGCKPCICTVPEVSSVFIFPPKPKDVLTITLTPKVTCVVVDISKDDPEVQFSWFVDDVEVHTAQTQPREEQFNSTFRSVSELPIMHQDWLNGKEFKCRVNSAAFPAPIEKTISKTKGRPKAPQVYTIPPPKEQMAKDKVSLTCMITDFFPEDITVEWQWNGQPAENYKNTQPIMDTDGSYFVYSKLNVQKSNWEAGNTFTCSVLHEGLHNHHTEKSLSHSPGK	binds
pTT5-AR8804-3.3mIgG1Fc (Fc fusion, As m24) heavy: QVQLVESGGGVVQPGGSLRLSCAASGSSVSRYAMAWYRQAPGKGRELVAVVRITGIPIYADFVKGRFTISRDNSKNTLYLQMNSLRAEDTAVYYCNTGNFNTYTRRYSPSETWGKGTTVTVSSVPRDCGCKPCICTVPEVSSVFIFPPKPKDVLTITLTPKVTCVVVDISKDDPEVQFSWFVDDVEVHTAQTQPREEQFNSTFRSVSELPIMHQDWLNGKEFKCRVNSAAFPAPIEKTISKTKGRPKAPQVYTIPPPKEQMAKDKVSLTCMITDFFPEDITVEWQWNGQPAENYKNTQPIMDTDGSYFVYSKLNVQKSNWEAGNTFTCSVLHEGLHNHHTEKSLSHSPGK	binds
pTT5-AR8820-2.1mIgG1Fc (Fc fusion, As m24) VHH-Fc: EVQLVESGGGLIQPGGSLRLSCAASGSSISRYAMAWYRQAPGKGRELVSVVRITGSPIYADFVGGRFTISRDNSKNTLYLQMNSLRAEDTAVYYCATGNFNTYTRRYSPSETWGQGTTVTVSSVPRDCGCKPCICTVPEVSSVFIFPPKPKDVLTITLTPKVTCVVVDISKDDPEVQFSWFVDDVEVHTAQTQPREEQFNSTFRSVSELPIMHQDWLNGKEFKCRVNSAAFPAPIEKTISKTKGRPKAPQVYTIPPPKEQMAKDKVSLTCMITDFFPEDITVEWQWNGQPAENYKNTQPIMDTDGSYFVYSKLNVQKSNWEAGNTFTCSVLHEGLHNHHTEKSLSHSPGK	binds
pTT5-AR8820-3.1 mIgG1Fc (Fc fusion, As m24) heavy: EVQLVESGGGLVQPGGSLRLSCAASGSSISRYAMAWYRQAPGKGRELVAVVRITGSPIYADFVGGRFTISRDNAKNSLYLQMNSLRAEDTAVYYCATGNFNTYTRRYSPSETWGQGTLVTVSSVPRDCGCKPCICTVPEVSSVFIFPPKPKDVLTITLTPKVTCVVVDISKDDPEVQFSWFVDDVEVHTAQTQPREEQFNSTFRSVSELPIMHQDWLNGKEFKCRVNSAAFPAPIEKTISKTKGRPKAPQVYTIPPPKEQMAKDKVSLTCMITDFFPEDITVEWQWNGQPAENYKNTQPIMDTDGSYFVYSKLNVQKSNWEAGNTFTCSVLHEGLHNHHTEKSLSHSPGK	binds
pTT5-AR8820-3.3 mIgG1Fc (Fc fusion, As m24) VHH-Fc: EVQLVESGGGLVQPGGSLRLSCAASGSSISRYAMAWYRQAPGKGRELVAVVRITGSPIYADFVGGRFTISRDNAKNSLYLQMNSLRAEDTAVYYCNTGNFNTYTRRYSPSETWGQGTLVTVSSVPRDCGCKPCICTVPEVSSVFIFPPKPKDVLTITLTPKVTCVVVDISKDDPEVQFSWFVDDVEVHTAQTQPREEQFNSTFRSVSELPIMHQDWLNGKEFKCRVNSAAFPAPIEKTISKTKGRPKAPQVYTIPPPKEQMAKDKVSLTCMITDFFPEDITVEWQWNGQPAENYKNTQPIMDTDGSYFVYSKLNVQKSNWEAGNTFTCSVLHEGLHNHHTEKSLSHSPGK	binds
